B1: bdSENP1^MutB protease (protein)
chain: PFVPLTDEDEDNVRHALGGRKRSETLSVHEASSIVITREILQCLNDKEWLNDEVINLYLELLKERELREPNKFLKCHFFNTFFYKKLINGGYDYKSVREWTTKRKLGYNLIDCDKIFVPIHKDVHWCLAVINIKEKKFQYLDSLGYMDMKALRILAKYLVDEVKDKSGKQIDVHAWKQEGVQNLPLQENGWDCGMFMLKYIDFYSRDMELVFGQKHMSYFRRRTAKEILDLKAG
B2: SUMOstar protease (protein)
chain: LVPELNEKDDDQVQKALASRENTQLMNRDNIEITVRDFKTLAPRRWLNSGIISFFMKYIEKSTPNTVAFNSFFYTNLSERGYQGVRRWMKRKKTQIDKLDKIFTPINLNQSHWALGIIDLKKKTIGYVDSLSNGPNAMSFAILTDLQKYVMEESKHTIGEDFDLIHLDCPQQPNGYDCGIYVCMNTLYGSADAPLDFDYKDAIRMRRFIAHLILTDALK
B3: hsSENP2 (protein)
chain: EFPEITEEMEKEIKNVFRNGNQDEVLSEAFRLTITRKDIQTLNHLNWLNDEIINFYMNMLMERSKEKGLPSVHAFNTFFFTKLKTAGYQAVKRWTKKVDVFSVDILLVPIHLGVHWCLAVVDFRKKNITYYDSMGGINNEACRILLQYLKQESIDKKRKEFDTNGWQLFSKKSQEIPQQMNGSDCGMFACKYADCITKDRPINFTQQHMPYFRKRMVWEILHRKLL

Experiments:
[1] = molecular target: bdSUMO Mut11-MBP fusion protein
[2] = molecular target: bdSUMO^Mut1-MBP fusion protein
[3] = molecular target: bdSUMO-MBP fusion protein
[4] = molecular target: bdSUMO Mut8-MBP fusion protein
[5] = molecular target: hsSUMO2-MBP fusion protein
[6] = molecular target: bdSUMO D67K-MBP fusion protein
[7] = molecular target: bdSUMO Mut12-MBP fusion protein
[8] = molecular target: SUMOstar-MBP fusion
[9] = molecular target: bdSUMO Mut10-MBP fusion protein
[10] = molecular target: bdSUMO Mut14-MBP fusion protein
[11] = molecular target: scSUMO-MBP fusion protein
[12] = molecular target: bdSUMO Mut15-MBP fusion protein
[13] = molecular target: bdSUMO Mut13-MBP fusion protein
[14] = molecular target: hsSUMO2-MBP fusion protein with the bdSUMO^Mut11 exchanges
[15] = molecular target: scSUMO-MBP fusion protein with the bdSUMO^Mut11 exchanges
[16] = molecular target: hsSUMO2-MBP fusion protein with the bdSUMO^Mut1 exchanges
[17] = molecular target: scSUMO-MBP fusion protein with the bdSUMO^Mut1 exchanges

| Protein | cleavage of the SUMO fusion protein [1] | cleavage of the SUMO fusion protein [2] | cleavage of the SUMO fusion protein [3] [% cleavage] | cleavage of the SUMO fusion protein [4] | cleavage of the SUMO fusion protein [5] | cleavage of the SUMO fusion protein [6] | cleavage of the SUMO fusion protein [7] | cleavage of 100 µM fusion, 1 h at 0 °C (FIG. 7) [8] | cleavage of the SUMO fusion protein [9] | cleavage of the SUMO fusion protein [10] | cleavage of the SUMO fusion protein [11] | cleavage of the SUMO fusion protein [12] | cleavage of the SUMO fusion protein [13] | cleavage of SUMO-MBP fusion, 1 h at 25 °C (FIG. 14) [14] | cleavage of SUMO-MBP fusion, 1 h at 25 °C (FIG. 14) [15] | cleavage of SUMO-MBP fusion, 1 h at 25 °C (FIG. 14) [16] | cleavage of SUMO-MBP fusion, 1 h at 25 °C (FIG. 14) [17] | further results |
| --- | --- | --- | --- | --- | --- | --- | --- | --- | --- | --- | --- | --- | --- | --- | --- | --- | --- | --- |
| B1 | 100 % cleavage | 100 % cleavage | < 25 | < 50 % cleavage | resistant | < 75 % cleavage | 100 % cleavage | the SUMOstar-MBP fusion remained intact even at the highest protease concentration of 10 µM | 100 % cleavage | 100 % cleavage | resistant | 100 % cleavage | 100 % cleavage | – | – | – | – | molar excess of substrate cleaved within one hour at 0 °C [2]: able to cleave a 500-fold molar excess of substrate within one hour at 0 °C; protease concentration that cleaves the cognate substrate, 1 h at 0 °C (FIG. 7) [2]: bdSENP1^MutB protease only cleaved its cognate substrate at a concentration of 200 nM; protease concentration that cleaves ≈95% of 100 µM substrate, 1 h at 0 °C [2]: only 200 nM of bdSENP1^MutB protease were enough to cleave ≈95% of the cognate substrate (bdSUMOmut 1); proteolytic efficiency against TEV protease [2]: around 1000-fold more efficient than the site-specific protease from the tobacco etch virus (TEV protease); proteolytic efficiency against bdSENP1 or Ulp1 on their cognate substrates [2]: only 5-fold less efficient as compared bdSENP1 or Ulp1; cleavage of SUMO-MBP fusion (FIG. 14) [5]: wild type scSUMO and human SUMO-2 (hsSUMO2) fusion proteins remain intact even in the presence of extremely high concentration of bdSENP1^MutB; cleavage of SUMO-MBP fusion (FIG. 14) [11]: wild type scSUMO and human SUMO-2 (hsSUMO2) fusion proteins remain intact even in the presence of extremely high concentration of bdSENP1^MutB |
| B2 | resistant | resistant | 100 | resistant | < 25 % cleavage | resistant | resistant | SUMOstar protease only recognized SUMOstar-MBP | resistant | resistant | 100 % cleavage | resistant | resistant | allowed cleavage resistance against Ulp1, SUMOstar protease, hsSENP2 and bdSENP1 | allowed cleavage resistance against Ulp1, SUMOstar protease, hsSENP2 and bdSENP1 | allowed cleavage resistance against Ulp1, SUMOstar protease, hsSENP2 and bdSENP1 | allowed cleavage resistance against Ulp1, SUMOstar protease, hsSENP2 and bdSENP1 | cleavage of 100 µM fusion, 1 h at 0 °C (FIG. 7) [2]: left intact the bdSUMO^Mut1-MBP fusion protein even at the highest SUMOstar protease concentration of 10 µM; cleavage of bdSUMO-MBP variants by 10 µM SUMOstar protease, 2 h at 25 °C (FIG. 5) [6]: the D67K mutation alone was necessary and sufficient for blocking cleavage |
| B3 | resistant | resistant | < 50 | resistant | 100 % cleavage | resistant | resistant | – | resistant | resistant | 100 % cleavage | resistant | resistant | allowed cleavage resistance against Ulp1, SUMOstar protease, hsSENP2 and bdSENP1 | allowed cleavage resistance against Ulp1, SUMOstar protease, hsSENP2 and bdSENP1 | allowed cleavage resistance against Ulp1, SUMOstar protease, hsSENP2 and bdSENP1 | allowed cleavage resistance against Ulp1, SUMOstar protease, hsSENP2 and bdSENP1 | – |
